{
  "source": "patent US20100254972A1",
  "key": {"[1]": {"target": "human TNFR1 (soluble recombinant protein) (human) (UniProt P19438)", "sequence (P19438 41-201 limits assumed)": "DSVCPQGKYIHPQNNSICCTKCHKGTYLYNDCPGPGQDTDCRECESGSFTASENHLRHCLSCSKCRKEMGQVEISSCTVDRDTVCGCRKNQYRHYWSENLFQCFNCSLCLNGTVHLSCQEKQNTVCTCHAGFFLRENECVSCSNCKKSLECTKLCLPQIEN", "test": "phage ELISA, plate coated with 1 nM TNFR1, anti-M13-HRP; trypsin 10 µg/ml; phage input 2.82E+09"}, "[2]": {"target": "human TNFR1 (soluble recombinant protein) (human) (UniProt P19438)", "test": "phage ELISA, plate coated with 1 nM TNFR1, anti-M13-HRP; phage treated 1 h RT with trypsin 1 mg/ml; phage input 4.51E+10"}, "[3]": {"target": "human TNFR1 (soluble recombinant protein) (human) (UniProt P19438)", "test": "phage ELISA, plate coated with 1 nM TNFR1, anti-M13-HRP; trypsin 1 mg/ml; phage input 3.52E+08"}, "[4]": {"target": "human TNFR1 (soluble recombinant protein) (human) (UniProt P19438)", "test": "phage ELISA, plate coated with 1 nM TNFR1, anti-M13-HRP; trypsin 100 µg/ml; phage input 2.26E+10"}, "[5]": {"target": "human TNFR1 (soluble recombinant protein) (human) (UniProt P19438)", "test": "phage ELISA, plate coated with 1 nM TNFR1, anti-M13-HRP; trypsin 100 µg/ml; phage input 1.13E+10"}, "[6]": {"target": "human TNFR1 (soluble recombinant protein) (human) (UniProt P19438)", "test": "phage ELISA, plate coated with 1 nM TNFR1, anti-M13-HRP; trypsin 0 µg/ml; phage input 1.13E+10"}, "[7]": {"target": "human TNFR1 (soluble recombinant protein) (human) (UniProt P19438)", "test": "phage ELISA, plate coated with 1 nM TNFR1, anti-M13-HRP; trypsin 1 mg/ml; phage input 1.13E+10"}, "[8]": {"target": "human TNFR1 (soluble recombinant protein) (human) (UniProt P19438)", "test": "phage ELISA, plate coated with 1 nM TNFR1, anti-M13-HRP; trypsin 1 mg/ml; phage input 5.64E+09"}, "[9]": {"target": "human TNFR1 (soluble recombinant protein) (human) (UniProt P19438)", "test": "phage ELISA, plate coated with 1 nM TNFR1, anti-M13-HRP; trypsin 100 µg/ml; phage input 4.51E+10"}, "[10]": {"target": "human TNFR1 (soluble recombinant protein) (human) (UniProt P19438)", "test": "phage ELISA, plate coated with 1 nM TNFR1, anti-M13-HRP; trypsin 0 µg/ml; phage input 5.64E+09"}, "[11]": {"target": "human TNFR1 (soluble recombinant protein) (human) (UniProt P19438)", "test": "phage ELISA, plate coated with 1 nM TNFR1, anti-M13-HRP; trypsin 100 µg/ml; phage input 5.64E+09"}, "[12]": {"target": "human TNFR1 (soluble recombinant protein) (human) (UniProt P19438)", "test": "phage ELISA, plate coated with 1 nM TNFR1, anti-M13-HRP; trypsin 10 µg/ml; phage input 2.26E+10"}, "[13]": {"target": "human TNFR1 (soluble recombinant protein) (human) (UniProt P19438)", "test": "phage ELISA, plate coated with 1 nM TNFR1, anti-M13-HRP; trypsin 10 µg/ml; phage input 1.41E+09"}, "[14]": {"target": "human TNFR1 (soluble recombinant protein) (human) (UniProt P19438)", "test": "phage ELISA, plate coated with 1 nM TNFR1, anti-M13-HRP; trypsin 10 µg/ml; phage input 4.51E+10"}, "[15]": {"target": "human TNFR1 (soluble recombinant protein) (human) (UniProt P19438)", "test": "phage ELISA, plate coated with 1 nM TNFR1, anti-M13-HRP; trypsin 10 µg/ml; phage input 1.13E+10"}, "[16]": {"target": "human TNFR1 (soluble recombinant protein) (human) (UniProt P19438)", "test": "phage ELISA, plate coated with 1 nM TNFR1, anti-M13-HRP; trypsin 1 mg/ml; phage input 2.26E+10"}, "[17]": {"target": "human TNFR1 (soluble recombinant protein) (human) (UniProt P19438)", "test": "phage ELISA, plate coated with 1 nM TNFR1, anti-M13-HRP; trypsin 10 µg/ml; phage input 7.05E+08"}, "[18]": {"target": "human TNFR1 (soluble recombinant protein) (human) (UniProt P19438)", "test": "phage ELISA, plate coated with 1 nM TNFR1, anti-M13-HRP; trypsin 0 µg/ml; phage input 7.05E+08"}, "[19]": {"target": "human TNFR1 (soluble recombinant protein) (human) (UniProt P19438)", "test": "phage ELISA, plate coated with 1 nM TNFR1, anti-M13-HRP; trypsin 100 µg/ml; phage input 7.05E+08"}, "[20]": {"target": "human TNFR1 (soluble recombinant protein) (human) (UniProt P19438)", "test": "phage ELISA, plate coated with 1 nM TNFR1, anti-M13-HRP; trypsin 0 µg/ml; phage input 2.26E+10"}, "[21]": {"target": "human TNFR1 (soluble recombinant protein) (human) (UniProt P19438)", "test": "phage ELISA, plate coated with 1 nM TNFR1, anti-M13-HRP; trypsin 0 µg/ml; phage input 1.41E+09"}, "[22]": {"target": "human TNFR1 (soluble recombinant protein) (human) (UniProt P19438)", "test": "phage ELISA, plate coated with 1 nM TNFR1, anti-M13-HRP; trypsin 0 µg/ml; phage input 4.51E+10"}, "[23]": {"target": "human TNFR1 (soluble recombinant protein) (human) (UniProt P19438)", "test": "phage ELISA, plate coated with 1 nM TNFR1, anti-M13-HRP; trypsin 100 µg/ml; phage input 1.41E+09"}, "[24]": {"target": "human TNFR1 (soluble recombinant protein) (human) (UniProt P19438)", "test": "phage ELISA, plate coated with 1 nM TNFR1, anti-M13-HRP; trypsin 100 µg/ml; phage input 2.82E+09"}, "[25]": {"target": "human TNFR1 (soluble recombinant protein) (human) (UniProt P19438)", "test": "phage ELISA, plate coated with 1 nM TNFR1, anti-M13-HRP; trypsin 0 µg/ml; phage input 2.82E+09"}, "[26]": {"target": "human TNFR1 (soluble recombinant protein) (human) (UniProt P19438)", "test": "phage ELISA, plate coated with 1 nM TNFR1, anti-M13-HRP; trypsin 1 mg/ml; phage input 2.82E+09"}, "[27]": {"target": "human TNFR1 (soluble recombinant protein) (human) (UniProt P19438)", "test": "phage ELISA, plate coated with 1 nM TNFR1, anti-M13-HRP; trypsin 100 µg/ml; phage input 3.52E+08"}, "[28]": {"target": "human TNFR1 (soluble recombinant protein) (human) (UniProt P19438)", "test": "phage ELISA, plate coated with 1 nM TNFR1, anti-M13-HRP; trypsin 1 mg/ml; phage input 7.05E+08"}, "[29]": {"target": "human TNFR1 (soluble recombinant protein) (human) (UniProt P19438)", "test": "phage ELISA, plate coated with 1 nM TNFR1, anti-M13-HRP; trypsin 0 µg/ml; phage input 3.52E+08"}, "[30]": {"target": "human TNFR1 (soluble recombinant protein) (human) (UniProt P19438)", "test": "phage ELISA, plate coated with 1 nM TNFR1, anti-M13-HRP; trypsin 10 µg/ml; phage input 5.64E+09"}, "[31]": {"target": "human TNFR1 (soluble recombinant protein) (human) (UniProt P19438)", "test": "phage ELISA, plate coated with 1 nM TNFR1, anti-M13-HRP; trypsin 1 mg/ml; phage input 1.41E+09"}, "[32]": {"target": "human TNFR1 (soluble recombinant protein) (human) (UniProt P19438)", "test": "phage ELISA, plate coated with 1 nM TNFR1, anti-M13-HRP; trypsin 10 µg/ml; phage input 3.52E+08"}},
  "data": [
    {"substance": "DOM1h-131", "values": [
      {"measurement": "phage ELISA signal", "setting": "[1]", "value": 0.573},
      {"measurement": "phage ELISA signal", "setting": "[2]", "value": 0.284},
      {"measurement": "phage ELISA signal", "setting": "[3]", "value": 0.08},
      {"measurement": "phage ELISA signal", "setting": "[4]", "value": 0.377},
      {"measurement": "phage ELISA signal", "setting": "[5]", "value": 0.284},
      {"measurement": "phage ELISA signal", "setting": "[6]", "value": 0.949},
      {"measurement": "phage ELISA signal", "setting": "[7]", "value": 0.183},
      {"measurement": "phage ELISA signal", "setting": "[8]", "value": 0.133},
      {"measurement": "phage ELISA signal", "setting": "[9]", "value": 0.418},
      {"measurement": "phage ELISA signal", "setting": "[10]", "value": 0.962},
      {"measurement": "phage ELISA signal", "setting": "[11]", "value": 0.196},
      {"measurement": "phage ELISA signal", "setting": "[12]", "value": 0.802},
      {"measurement": "phage ELISA signal", "setting": "[13]", "value": 0.409},
      {"measurement": "phage ELISA signal", "setting": "[14]", "value": 0.784},
      {"measurement": "phage ELISA signal", "setting": "[15]", "value": 0.86},
      {"measurement": "phage ELISA signal", "setting": "[16]", "value": 0.229},
      {"measurement": "phage ELISA signal", "setting": "[17]", "value": 0.286},
      {"measurement": "phage ELISA signal", "setting": "[18]", "value": 0.705},
      {"measurement": "phage ELISA signal", "setting": "[19]", "value": 0.084},
      {"measurement": "phage ELISA signal", "setting": "[20]", "value": 0.944},
      {"measurement": "phage ELISA signal", "setting": "[21]", "value": 0.85},
      {"measurement": "phage ELISA signal", "setting": "[22]", "value": 0.916},
      {"measurement": "phage ELISA signal", "setting": "[23]", "value": 0.115},
      {"measurement": "phage ELISA signal", "setting": "[24]", "value": 0.141},
      {"measurement": "phage ELISA signal", "setting": "[25]", "value": 0.946},
      {"measurement": "phage ELISA signal", "setting": "[26]", "value": 0.114},
      {"measurement": "phage ELISA signal", "setting": "[27]", "value": 0.084},
      {"measurement": "phage ELISA signal", "setting": "[28]", "value": 0.084},
      {"measurement": "phage ELISA signal", "setting": "[29]", "value": 0.577},
      {"measurement": "phage ELISA signal", "setting": "[30]", "value": 0.695},
      {"measurement": "phage ELISA signal", "setting": "[31]", "value": 0.089},
      {"measurement": "phage ELISA signal", "setting": "[32]", "value": 0.213}
    ]}
  ]
}
